Assay results as given in patent publication US20210324059A1 (AMLO BIOSCIENCES, published 2021).
No end group written: not given here.

Columns and labels:
human Ambra-1 = target: T1, human Ambra-1 (human, UniProt Q9C0C7 1-1298); assay: automated immunohistochemistry, DAB chromogen
T1 construct: Endogenous protein in formalin fixed paraffin embedded human skin and melanoma sections (immunohistochemistry)
T1 sequence: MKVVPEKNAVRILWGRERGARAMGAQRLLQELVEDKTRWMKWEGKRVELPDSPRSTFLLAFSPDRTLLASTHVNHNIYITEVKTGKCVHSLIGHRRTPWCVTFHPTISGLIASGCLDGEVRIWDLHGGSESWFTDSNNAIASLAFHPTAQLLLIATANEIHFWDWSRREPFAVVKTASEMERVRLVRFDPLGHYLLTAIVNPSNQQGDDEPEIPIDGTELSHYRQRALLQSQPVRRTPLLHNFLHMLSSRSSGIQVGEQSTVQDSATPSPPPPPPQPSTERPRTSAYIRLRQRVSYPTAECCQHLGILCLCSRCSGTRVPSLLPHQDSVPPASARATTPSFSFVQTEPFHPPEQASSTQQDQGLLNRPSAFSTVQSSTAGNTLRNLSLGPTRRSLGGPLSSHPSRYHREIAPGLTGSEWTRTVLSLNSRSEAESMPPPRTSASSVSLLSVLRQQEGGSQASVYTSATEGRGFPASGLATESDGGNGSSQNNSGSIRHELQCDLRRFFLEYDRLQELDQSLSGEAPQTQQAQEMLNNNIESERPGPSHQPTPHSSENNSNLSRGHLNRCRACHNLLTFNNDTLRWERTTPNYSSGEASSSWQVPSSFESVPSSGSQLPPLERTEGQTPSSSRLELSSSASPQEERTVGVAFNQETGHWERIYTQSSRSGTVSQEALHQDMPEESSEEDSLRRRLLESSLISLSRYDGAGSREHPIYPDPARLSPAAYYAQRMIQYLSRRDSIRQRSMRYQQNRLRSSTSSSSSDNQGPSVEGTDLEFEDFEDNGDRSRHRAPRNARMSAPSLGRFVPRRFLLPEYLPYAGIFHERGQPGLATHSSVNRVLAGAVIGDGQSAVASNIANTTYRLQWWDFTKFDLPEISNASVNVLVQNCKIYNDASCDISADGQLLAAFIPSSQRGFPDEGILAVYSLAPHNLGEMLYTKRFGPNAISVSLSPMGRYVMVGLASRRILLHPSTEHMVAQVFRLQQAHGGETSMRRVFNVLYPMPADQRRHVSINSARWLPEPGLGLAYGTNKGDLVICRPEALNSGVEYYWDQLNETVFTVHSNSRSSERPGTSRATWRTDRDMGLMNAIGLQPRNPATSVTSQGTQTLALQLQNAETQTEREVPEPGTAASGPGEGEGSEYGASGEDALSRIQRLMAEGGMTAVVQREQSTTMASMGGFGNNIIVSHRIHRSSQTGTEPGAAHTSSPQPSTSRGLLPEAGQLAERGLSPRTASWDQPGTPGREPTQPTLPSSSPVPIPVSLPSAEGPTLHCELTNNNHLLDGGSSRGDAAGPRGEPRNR

[1] = target: T2, N1-CD33-His6 (the ectodomain of human CD33 fused to the N1 domain of the g3p filamentous phage M13) (filamentous phage M13; human, UniProt P20138 18-259); assay: quality control ELISA on immobilized control protein
T2 construct: extracellular domain; Control protein of the QC ELISA, used for calculation of background; not shown: N1 domain of g3p of filamentous phage M13
T2 sequence (P20138 18-259, tags left off): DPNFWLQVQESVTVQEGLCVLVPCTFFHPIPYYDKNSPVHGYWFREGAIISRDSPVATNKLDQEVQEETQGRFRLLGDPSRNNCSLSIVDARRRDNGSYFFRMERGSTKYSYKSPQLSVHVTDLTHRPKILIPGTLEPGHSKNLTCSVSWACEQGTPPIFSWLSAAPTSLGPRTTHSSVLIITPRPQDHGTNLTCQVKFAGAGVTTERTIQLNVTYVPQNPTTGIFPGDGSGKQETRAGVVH

[2] = target: T3, Ambra-1 peptide (synthesized peptide to which anti-Ambra-1 antibodies were raised) (human, also: conjugated to carrier protein (BSA), site not given here); assay: quality control ELISA, chimeric human/mouse IgG1 on immobilized Amb1-TRF and Amb1-BSA (Ambra-1 peptide conjugates), signal over background
T3 construct: It was tested in native and denatured form; also called Ambra-1 antigen
T3 peptide: CGGSSRGDAAGPRGEPRNR

[3] = target: T2, N1-CD33-His6 (the ectodomain of human …); assay: QC ELISA on immobilized control protein
[4] = target: T2, N1-CD33-His6 (the ectodomain of human …); assay: quality control ELISA on immobilized control protein; remark: listed apart in the source

B1: full length chimeric antibody AbD33473 with an IgG1 mouse Fc region (antibody, V domains shown)
VH: EVQLVQSGAEVKKPGESLKISCKGSGYSFSSYWIHWVRQMPGKGLEWMGTIFPSRSYTTYSPSFQGQVTISADKSISTAYLQWSSLKASDTAMYYCARDTPSTALKSPFDYWGQGTLVTVSS
VL: DIVLTQPPSVSGAPGQRVTISCSGSSSNIGYNYVYWYQQLPGTAPKLLIYENNKRPSGVPDRFSGSKSGTSASLAITGLQAEDEADYYCSSWDSHSNSYVFGGGTKLTVLG
notes: also called recombinant monoclonal antibody AbD33473; HuCAL antibody AbD33473
Human Ambra-1
  binding result: binds
[1]
  binding result: no binding
[2]
  binding result: binds

B2: recombinant human HuCAL antibody fragment for Ambra-1 Abd33473.1 (Fab)
heavy: EVQLVQSGAEVKKPGESLKISCKGSGYSFSSYWIHWVRQMPGKGLEWMGTIFPSRSYTTYSPSFQGQVTISADKSISTAYLQWSSLKASDTAMYYCARDTPSTALKSPFDYWGQGTLVTVSSASTKGPSVFPLAPSSKSTSGGTAALGCLVKDYFPEPVTVSWNSGALTSGVHTFPAVLQSSGLYSLSSVVTVPSSSLGTQTYICNVNHKPSNTKVDKKVEPKSRTPEMPVLENRAAQGDITAPGGARRLTGDQTAALRDSLSDKPAKNIILLIGDGMGDSEITAARNYAEGAGGFFKGIDALPLTGQYTHYALNKKTGKPDYVTDSAASATAWSTGVKTYNGALGVDIHEKDHPTILEMAKAAGLATGNVSTAELQDATPAALVAHVTSRKCYGPSATSEKCPGNALEKGGKGSITEQLLNARADVTLGGGAKTFAETATAGEWQGKTLREQAQARGYQLVSDAASLNSVTEANQQKPLLGLFADGNMPVRWLGPKATYHGNIDKPAVTCTPNPQRNDSVPTLAQMTDKAIELLSKNEKGFFLQVEGASIDKQDHAANPCGQIGETVDLDEAVQRALEFAKKEGNTLVIVTADHAHASQIVAPDTKAPGLTQALNTKDGAVMVMSYGNSEEDSQEHTGSQLRIAAYGPHAANVVGLTDQTDLFYTMKAALGLKDYKDDDDKHHHHHH
light: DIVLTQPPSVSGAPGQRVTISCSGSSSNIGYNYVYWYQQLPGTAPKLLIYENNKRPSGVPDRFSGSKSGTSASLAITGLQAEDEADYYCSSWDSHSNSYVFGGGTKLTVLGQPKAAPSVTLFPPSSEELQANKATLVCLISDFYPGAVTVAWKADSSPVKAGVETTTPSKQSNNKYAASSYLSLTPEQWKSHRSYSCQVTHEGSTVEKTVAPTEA
notes: also called HuCAL antibody 33473
[3]
  binding result: no binding

B3: full length chimeric antibody AbD33047 with an IgG1 mouse Fc region (antibody, V domains shown)
VH: QVQLVQSGAEVKKPGASVKVSCKASGYTFNDYYIHWVRQAPGQGLEWMGVISPNSGKTNYAQKFQGRVTMTRDTSISTAYMELSRLRSEDTAVYYCARDLYPDSSAFDIWGQGTLVTVSS
VL: DIELTQPPSVSVSPGQTASITCSGDNLGDKYAHWYQQKPGQAPVLVIYDDNERPSGIPERFSGSNSGNTATLTISGTQAEDEADYYCQSYDSGNRVFGGGTKLTVLG
notes: also called recombinant monoclonal antibody AbD33047; HuCAL antibody AbD33047
[4]
  binding result: no binding
